Assay results: article PMC5773583, “Redundancy of protein disulfide isomerases in the catalysis of the inactivating disulfide switch in A Disintegrin and Metalloprotease 17” (Scientific Reports, 2018)
Bridge positions count the residues as written; N and C are the ends.

T1: PDIA6 C58S TRAP mutant (human, UniProt Q15084 20-440, C58S)
T1 construct: mature human PDIA6 with C58S (second cysteine of the CGHC motif of the a domain), in pET28
T1 sequence (looked up): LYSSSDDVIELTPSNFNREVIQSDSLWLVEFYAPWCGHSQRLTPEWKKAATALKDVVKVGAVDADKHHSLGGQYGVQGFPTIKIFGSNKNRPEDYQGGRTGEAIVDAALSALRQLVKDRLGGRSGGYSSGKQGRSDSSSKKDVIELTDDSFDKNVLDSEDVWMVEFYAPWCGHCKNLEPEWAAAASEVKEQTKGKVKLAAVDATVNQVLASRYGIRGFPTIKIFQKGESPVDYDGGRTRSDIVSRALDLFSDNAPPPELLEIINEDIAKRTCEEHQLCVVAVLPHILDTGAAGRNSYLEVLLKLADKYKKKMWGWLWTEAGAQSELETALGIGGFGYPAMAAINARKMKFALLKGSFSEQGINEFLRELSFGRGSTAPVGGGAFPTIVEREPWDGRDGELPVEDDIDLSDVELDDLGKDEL

T2: PDIA6 inverse TRAP mutant C55S C190S (human, UniProt Q15084 20-440, C55S | C190S)
T2 construct: mature human PDIA6 with the N-terminal cysteines of both CGHC motifs exchanged (C55S, C190S), in pET28; also called PDIA6 C55S C190S
T2 sequence (looked up): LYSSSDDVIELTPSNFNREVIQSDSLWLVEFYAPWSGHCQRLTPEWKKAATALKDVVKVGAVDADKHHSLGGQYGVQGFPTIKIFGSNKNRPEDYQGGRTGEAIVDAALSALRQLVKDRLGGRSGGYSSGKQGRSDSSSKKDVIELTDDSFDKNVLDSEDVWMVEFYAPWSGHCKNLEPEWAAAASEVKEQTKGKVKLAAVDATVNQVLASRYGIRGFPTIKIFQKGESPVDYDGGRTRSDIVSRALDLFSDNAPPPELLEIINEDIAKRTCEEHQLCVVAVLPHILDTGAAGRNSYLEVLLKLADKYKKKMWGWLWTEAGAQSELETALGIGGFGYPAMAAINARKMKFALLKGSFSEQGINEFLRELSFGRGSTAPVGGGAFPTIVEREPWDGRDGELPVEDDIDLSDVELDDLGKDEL

T3: PDIA6 C193S TRAP mutant (human, UniProt Q15084 20-440, C193S)
T3 construct: mature human PDIA6 with C193S (second cysteine of the CGHC motif of the a' domain), in pET28
T3 sequence (looked up): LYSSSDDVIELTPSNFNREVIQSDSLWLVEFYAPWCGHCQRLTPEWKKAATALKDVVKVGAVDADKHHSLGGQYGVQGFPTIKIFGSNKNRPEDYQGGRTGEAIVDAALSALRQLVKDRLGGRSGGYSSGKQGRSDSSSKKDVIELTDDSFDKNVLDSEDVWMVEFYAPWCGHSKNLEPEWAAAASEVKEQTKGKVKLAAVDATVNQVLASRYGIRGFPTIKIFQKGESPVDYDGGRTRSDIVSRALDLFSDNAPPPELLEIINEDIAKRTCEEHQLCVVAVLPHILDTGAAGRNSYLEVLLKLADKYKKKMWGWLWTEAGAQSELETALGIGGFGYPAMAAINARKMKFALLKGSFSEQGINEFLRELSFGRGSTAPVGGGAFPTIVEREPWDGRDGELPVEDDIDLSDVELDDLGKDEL

T4: PDIA6 double TRAP mutant (2 TRAP) C58S C193S (human, UniProt Q15084 20-440, C58S | C193S)
T4 construct: mature human PDIA6 with C58S and C193S, in pET28; also called PDIA6 C58S C193S; PDIA6_2 TRAP
T4 sequence (looked up): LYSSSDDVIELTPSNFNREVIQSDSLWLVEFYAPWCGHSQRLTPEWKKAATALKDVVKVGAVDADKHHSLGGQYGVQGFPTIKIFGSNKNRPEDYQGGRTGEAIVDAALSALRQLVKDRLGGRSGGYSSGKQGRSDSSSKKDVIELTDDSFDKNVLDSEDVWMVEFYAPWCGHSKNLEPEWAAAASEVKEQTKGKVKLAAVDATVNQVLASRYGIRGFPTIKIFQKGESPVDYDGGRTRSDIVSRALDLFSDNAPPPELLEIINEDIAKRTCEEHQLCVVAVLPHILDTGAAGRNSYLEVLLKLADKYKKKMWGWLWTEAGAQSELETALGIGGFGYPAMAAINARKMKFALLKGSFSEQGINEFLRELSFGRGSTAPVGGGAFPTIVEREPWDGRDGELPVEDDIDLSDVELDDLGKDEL

T5: PDIA6 C55S C58S mutant (human, UniProt Q15084 20-440, C55S | C58S)
T5 construct: mature human PDIA6 with both cysteines of the a domain exchanged (C55S, C58S), in pET28
T5 sequence (looked up): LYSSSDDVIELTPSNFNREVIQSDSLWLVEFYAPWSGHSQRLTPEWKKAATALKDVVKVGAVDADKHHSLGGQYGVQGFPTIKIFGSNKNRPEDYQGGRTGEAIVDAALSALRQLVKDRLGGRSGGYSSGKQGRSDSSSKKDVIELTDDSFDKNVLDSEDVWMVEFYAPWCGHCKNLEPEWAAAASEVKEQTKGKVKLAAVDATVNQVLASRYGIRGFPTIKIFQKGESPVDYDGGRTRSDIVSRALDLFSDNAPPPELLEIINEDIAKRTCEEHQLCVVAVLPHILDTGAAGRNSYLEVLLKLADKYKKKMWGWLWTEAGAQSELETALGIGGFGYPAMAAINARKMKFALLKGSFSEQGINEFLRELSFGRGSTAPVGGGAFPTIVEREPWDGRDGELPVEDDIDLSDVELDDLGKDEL

T6: protein disulfide isomerase PDIA3 (human, UniProt P30101 25-505)
T6 construct: mature human PDIA3 (MW 56.6 kDa), cloned into pET28; Monomeric by SEC-MALS; also called Erp57
T6 sequence (looked up): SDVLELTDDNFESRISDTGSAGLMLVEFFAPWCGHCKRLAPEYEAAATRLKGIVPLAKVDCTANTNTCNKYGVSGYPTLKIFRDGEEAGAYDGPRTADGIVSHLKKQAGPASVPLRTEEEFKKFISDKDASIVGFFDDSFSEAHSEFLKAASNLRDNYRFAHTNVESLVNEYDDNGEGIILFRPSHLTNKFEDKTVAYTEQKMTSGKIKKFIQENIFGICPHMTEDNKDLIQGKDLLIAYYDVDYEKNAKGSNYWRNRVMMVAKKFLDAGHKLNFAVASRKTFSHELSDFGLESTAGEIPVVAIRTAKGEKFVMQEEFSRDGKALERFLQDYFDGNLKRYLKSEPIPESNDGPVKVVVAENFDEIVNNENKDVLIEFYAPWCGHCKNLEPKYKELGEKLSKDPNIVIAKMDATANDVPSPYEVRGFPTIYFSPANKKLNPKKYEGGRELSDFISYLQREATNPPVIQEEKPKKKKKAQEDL

B1: protein disulfide isomerase PDIA6 (enzyme, human, UniProt Q15084 20-440, looked up)
chain: LYSSSDDVIELTPSNFNREVIQSDSLWLVEFYAPWCGHCQRLTPEWKKAATALKDVVKVGAVDADKHHSLGGQYGVQGFPTIKIFGSNKNRPEDYQGGRTGEAIVDAALSALRQLVKDRLGGRSGGYSSGKQGRSDSSSKKDVIELTDDSFDKNVLDSEDVWMVEFYAPWCGHCKNLEPEWAAAASEVKEQTKGKVKLAAVDATVNQVLASRYGIRGFPTIKIFQKGESPVDYDGGRTRSDIVSRALDLFSDNAPPPELLEIINEDIAKRTCEEHQLCVVAVLPHILDTGAAGRNSYLEVLLKLADKYKKKMWGWLWTEAGAQSELETALGIGGFGYPAMAAINARKMKFALLKGSFSEQGINEFLRELSFGRGSTAPVGGGAFPTIVEREPWDGRDGELPVEDDIDLSDVELDDLGKDEL
notes: mature human PDIA6 (MW 48.8 kDa), cloned into pET28; Dimer in solution by SEC-MALS; also called Erp5; wild-type PDIA6

Experiments:
PDIA6 C58S TRAP mutant = biological target: T1, PDIA6 C58S TRAP mutant; experiment: MST; RED-NHS-labelled MPD constant at 20 nM, unlabelled PDI titrated (7.5 uM to 0.9537 nM, 1:2 series, 16 dilutions); PBS-P (PBS, 0.01% P20, pH 7.4), 25 °C; KD from the ligand-induced change of the initial fluorescence intensity; conditions: both partners purified
[1] = biological target: T7, protein disulfide isomerase PDIA1 (human, UniProt P07237 18-508); experiment: as above; conditions: both partners purified
T7 construct: mature human PDIA1 (MW 57.6 kDa), cloned into pET28; Monomeric by SEC-MALS

[2] = biological target: T2, PDIA6 inverse TRAP mutant C55S C190S; experiment: as above; conditions: both partners purified
PDIA6 C193S TRAP mutant = biological target: T3, PDIA6 C193S TRAP mutant; experiment: as above; conditions: both partners purified
[3] = biological target: T4, PDIA6 double TRAP mutant (2 TRAP) C58S …; experiment: as above; conditions: both partners purified
PDIA6 C55S C58S mutant = biological target: T5, PDIA6 C55S C58S mutant; experiment: as above; conditions: both partners purified
[4] = biological target: T6, protein disulfide isomerase PDIA3; experiment: as above; conditions: both partners purified
[5] = biological target: B1; experiment: as above; conditions: both partners purified
[6] = biological target: the molecule itself; experiment: SEC-MALS; Superdex 200 10/300 GL, 0.5 ml/minute, PBS pH 7.4; 100–500 µg protein per analysis

T7 sequence (P07237 18-508): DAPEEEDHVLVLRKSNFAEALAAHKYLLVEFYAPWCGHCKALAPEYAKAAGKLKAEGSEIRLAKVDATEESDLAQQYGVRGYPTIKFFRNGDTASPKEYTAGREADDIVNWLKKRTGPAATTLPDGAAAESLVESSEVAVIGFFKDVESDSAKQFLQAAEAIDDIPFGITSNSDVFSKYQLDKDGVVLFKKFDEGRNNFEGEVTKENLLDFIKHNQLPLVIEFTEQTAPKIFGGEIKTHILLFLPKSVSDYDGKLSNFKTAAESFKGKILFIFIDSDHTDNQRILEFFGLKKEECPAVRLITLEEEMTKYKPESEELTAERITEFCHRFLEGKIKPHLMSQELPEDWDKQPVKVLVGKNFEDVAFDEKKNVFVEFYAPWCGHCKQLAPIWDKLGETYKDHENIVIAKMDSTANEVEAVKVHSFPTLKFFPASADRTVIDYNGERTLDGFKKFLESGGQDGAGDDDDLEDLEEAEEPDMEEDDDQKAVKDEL

Kd (PDIA6 C58S TRAP mutant)	Kd [1]	Kd [2]	Kd (PDIA6 C193S TRAP mutant)	Kd [3]	Kd (PDIA6 C55S C58S mutant)	Kd [4]	Kd [5]	Binder	stoichiometry N [6]
141 nM	158 nM	115 nM	142 nM	192 nM	138 nM	90 nM	93 nM	open membrane-proximal domain (opMPD) of A Disintegrin and Metalloprotease 17 (ADAM17) (domain or fragment, UniProt P78536 581-642, looked up, disulfide 20-50, 55-61; also: labelled on amines with RED-NHS dye, membrane-proximal domain of ADAM17, open isomer, recombinant, 9.9 kDa; also called open conformation of the MPD) FCEREQQLESCACNETDNSCKVCCRDLSGRCVPYVDAEQKNLFLRKGKPCTVGFCDMNGKCE	
								B1	2
113 nM	211 nM	116 nM	91 nM	151 nM	191 nM	55 nM	61 nM	closed membrane-proximal domain (clMPD) of A Disintegrin and Metalloprotease 17 (ADAM17) (domain or fragment, UniProt P78536 581-642, looked up, disulfide 20-55, 50-61; also: labelled on amines with RED-NHS dye, membrane-proximal domain of ADAM17, closed disulfide isomer; it is the disulfide isomer of m9 and probably carries the same tag; also called closed MPD; closed isoform) FCEREQQLESCACNETDNSCKVCCRDLSGRCVPYVDAEQKNLFLRKGKPCTVGFCDMNGKCE	
